This is an account of results in the supplement of paper PMC7877785.

± gives the uncertainty stated by the source.

The nature of this data set: self-splicing fitness, log relative to wild type (ln ratio); higher = more splicing; Tetrahymena group I intron in knt gene, E. coli kanamycin selection, DiMSum; sequences stand for … in CUCUCU…GGAGGGAAAAGUUAUCAGGCAUGCACCUGGUAGCUAGUCUUUAAACCAAUAGAUUGCAUCGGUUUAAAAGGCAAGACCGUCAAAUUGCGGGAAAGGGGUCAACAGCCGUUCAGUACCAAGUCUCAGGGGAAACUUUGAGAUGGCCUUGCAAAGGGUAUGGUAAUAAGCUGACGGACAUGGUCCUAACCACGCAGCCAAGUCCUAAGUCAACAGAUCUUCUGUUGAUAUGGAUGCAGUUCACAGACUAAAUGUCGGUCGGGGAAGAUGUAUUCUUCUCAUAAGAUAUAGUCGGACCUCUCCUUAAUGGGAGCUAGCGGAUGAAGUGAUGCAACACUGGAGCCGCUGGGAACUAAUUUGUAUGCGAAAGUAUAUUGAUUAGUUUUGGAGUACUCGUGGUCG
An outline of the steps:
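Six replicate transformations of E. coli BL21(DE3) with a pET-22b(+) library were grown overnight at 37°C or 30°C. The library randomised all eight P1ex-region intron nucleotides, the intron lying in the knt kanamycin-resistance gene, and plates were LB agar with or without 25 μg/mL kanamycin plus 100 μg/mL carbenicillin, 50 μM IPTG and 0.2% rhamnose. Pooled colonies were amplicon-sequenced on an Illumina HiSeq 2500, and fitness is the DiMSum error-weighted combination of wild-type-normalised replicate fold changes, kanamycin versus none.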

Turning to AUCGAGCAAUAUUACGGGCA, the “self-splicing fitness (ln)” value reads like this: (30 °C) -1.99 ± 0.23; (37 °C) -1.32 ± 0.27.
Taken in the same sequence, the figures for CUUAAGCAAUAUUACGGUAG were -1.58 ± 0.12 and -0.559 ± 0.12.
Taken in the same sequence, the figures for CAGUAGCAAUAUUACGGCGG were -0.246 ± 0.081 and -0.627 ± 0.091.
The matching figures for CAUAAGCAAUAUUACGUAGG: -0.808 ± 0.066 and -0.719 ± 0.084.
Consider GCUUAGCAAUAUUACGAAAC, for which the “self-splicing fitness (ln)” value (30 °C) was -1.22 ± 0.16 and the “self-splicing fitness (ln)” value (37 °C) is -0.448 ± 0.24.
For the sequence CACGAGCAAUAUUACGUUGA, the “self-splicing fitness (ln)” value is -3.06 ± 0.17 (30 °C) and -2.47 ± 0.18 (37 °C).
Taken in the same sequence, the figures for CAAAAGCAAUAUUACGCUUG were -3.3 ± 0.15 and -2.35 ± 0.19.
Turning to GUGGAGCAAUAUUACGGUAG, the “self-splicing fitness (ln)” value (30 °C) was -1.7 ± 0.16 and the “self-splicing fitness (ln)” value (37 °C) is -1.41 ± 0.31.
Taken in the same sequence, the figures for CAUCAGCAAUAUUACGCUUA were -1.77 ± 0.13 and -0.562 ± 0.11.
Take AGUGAGCAAUAUUACGACUA: the “self-splicing fitness (ln)” value reads like this: (30 °C) -1.06 ± 0.17; (37 °C) -0.32 ± 0.15.
The matching figures for CUACAGCAAUAUUACGAGAU: -4.21 ± 0.37 and -2.96 ± 0.28.
The matching figures for UGCUAGCAAUAUUACGAACU: -1.12 ± 0.15 and -0.251 ± 0.15.
The matching figures for CCCCAGCAAUAUUACGUCAG: -2.54 ± 0.14 and -1.36 ± 0.15.
CUCCAGCAAUAUUACGUACA: the “self-splicing fitness (ln)” value (30 °C) was -3.85 ± 0.19 and the “self-splicing fitness (ln)” value (37 °C) is -2.08 ± 0.2.
Taken in the same sequence, the figures for AUGUAGCAAUAUUACGUAAA were -2.25 ± 0.25 and -1.9 ± 0.26.
The matching figures for AGUUAGCAAUAUUACGCGUA: -1.77 ± 0.22 and -0.709 ± 0.15.
The matching figures for AAUCAGCAAUAUUACGCGAU: -2.8 ± 0.14 and -2.07 ± 0.14.
For the sequence AGGCAGCAAUAUUACGGAGU, the “self-splicing fitness (ln)” value runs as follows: (30 °C) -3.02 ± 0.22; (37 °C) -2.09 ± 0.16.
Taken in the same sequence, the figures for AUACAGCAAUAUUACGUGGU were -2.71 ± 0.13 and -2.27 ± 0.14.
The matching figures for AACAAGCAAUAUUACGAUCA: -0.766 ± 0.058 and -0.628 ± 0.078.
The matching figures for GCCUAGCAAUAUUACGGCUA: -1.2 ± 0.46 and -2.49 ± 0.39.
As for GUGCAGCAAUAUUACGUUUG, the “self-splicing fitness (ln)” value (30 °C) was -1.76 ± 0.17 and the “self-splicing fitness (ln)” value (37 °C) was -2.63 ± 0.27.
Taken in the same sequence, the figures for CUUCAGCAAUAUUACGUGGA were -3.13 ± 0.33 and -3.04 ± 0.28.
The matching figures for CUCUAGCAAUAUUACGUUUU: -4.1 ± 0.22 and -3.15 ± 0.16.
Taken in the same sequence, the figures for GCUGAGCAAUAUUACGCAGU were -4.98 ± 0.45 and -3.31 ± 0.34.
CAGUAGCAAUAUUACGCCUG: the “self-splicing fitness (ln)” value is -2.42 ± 0.25 (30 °C) and -2.46 ± 0.44 (37 °C).
The matching figures for GACAAGCAAUAUUACGCUGU: -3.61 ± 0.25 and -1.12 ± 0.2.
Taken in the same sequence, the figures for ACAUAGCAAUAUUACGCGCU were -1.19 ± 0.095 and -0.534 ± 0.098.
For the sequence UUGAAGCAAUAUUACGUUCC, the “self-splicing fitness (ln)” value (37 °C) was -2.79 ± 0.35.
For the sequence CGGCAGCAAUAUUACGUAAG, the “self-splicing fitness (ln)” value runs as follows: (30 °C) -0.428 ± 0.059; (37 °C) 0.0199 ± 0.075.
Taken in the same sequence, the figures for AUGCAGCAAUAUUACGGAGC were -2.6 ± 0.15 and -2.99 ± 0.18.
Taken in the same sequence, the figures for GAGUAGCAAUAUUACGUAGA were -4.32 ± 0.28 and -2.18 ± 0.19.
On to AUGAAGCAAUAUUACGUCGU, for which the “self-splicing fitness (ln)” value was -0.896 ± 0.07 (30 °C) and -0.0581 ± 0.089 (37 °C).
With UUUAAGCAAUAUUACGAAAC, where the note is “37 °C”, the “self-splicing fitness (ln)” value is -1.01 ± 0.39.
In the case of UUCCAGCAAUAUUACGGUAG, the “self-splicing fitness (ln)” value by setting is: (30 °C) -0.0875 ± 0.065; (37 °C) 0.438 ± 0.079.
The matching figures for AUCCAGCAAUAUUACGGGCC: -1.23 ± 0.2 and -1.24 ± 0.33.
For CCUCAGCAAUAUUACGCCGC, where the note is “30 °C”, the “self-splicing fitness (ln)” value was -3.72 ± 0.37.
In the case of GCUGAGCAAUAUUACGUAUC, the “self-splicing fitness (ln)” value is -2.37 ± 0.13 (30 °C) and 0.164 ± 0.1 (37 °C).
The matching figures for UUCAAGCAAUAUUACGGCAG: -1.05 ± 0.077 and -0.45 ± 0.11.
As for CUUCAGCAAUAUUACGCUGA, the “self-splicing fitness (ln)” value (30 °C) is -2.41 ± 0.17 and the “self-splicing fitness (ln)” value (37 °C) was -2.56 ± 0.29.
Taken in the same sequence, the figures for CGACAGCAAUAUUACGCGCU were -3.43 ± 0.12 and -1.91 ± 0.13.
The matching figures for UUGUAGCAAUAUUACGAUUG: -2.16 ± 0.15 and -1.42 ± 0.2.
Taken in the same sequence, the figures for AUAAAGCAAUAUUACGUGAG were -1.27 ± 0.076 and -1.07 ± 0.12.
For the sequence CUAAAGCAAUAUUACGCGCG, the “self-splicing fitness (ln)” value (30 °C) is 0.227 ± 0.072 and the “self-splicing fitness (ln)” value (37 °C) is -0.176 ± 0.095.
Taken in the same sequence, the figures for GCAUAGCAAUAUUACGGCGC were -0.822 ± 0.17 and -0.485 ± 0.2.
The matching figures for GAAUAGCAAUAUUACGCAAG: -2.44 ± 0.17 and -1.54 ± 0.15.
The matching figures for UAACAGCAAUAUUACGCUUA: -0.77 ± 0.071 and 0.122 ± 0.1.
Take CAAAAGCAAUAUUACGUACA: the “self-splicing fitness (ln)” value (30 °C) is -1.91 ± 0.1 and the “self-splicing fitness (ln)” value (37 °C) is -1.54 ± 0.13.
The matching figures for AUAAAGCAAUAUUACGUGCU: -1.29 ± 0.08 and -0.736 ± 0.11.
The matching figures for UGCUAGCAAUAUUACGCUAG: -2.28 ± 0.22 and -2.65 ± 0.34.
For the sequence GGUCAGCAAUAUUACGAAUU, the “self-splicing fitness (ln)” value came to 0.104 ± 0.078 (30 °C) and 0.599 ± 0.091 (37 °C).
Taken in the same sequence, the figures for AGGUAGCAAUAUUACGUGGU were -3.697 ± 0.024 and -2.33 ± 0.036.
Taken in the same sequence, the figures for GUCUAGCAAUAUUACGACAG were -2.33 ± 0.18 and -1.71 ± 0.3.
The matching figures for CCAUAGCAAUAUUACGUCCA: -1.27 ± 0.18 and -1.85 ± 0.33.
Regarding AAUCAGCAAUAUUACGGCUU, the “self-splicing fitness (ln)” value (30 °C) stood at 0.103 ± 0.067 and the “self-splicing fitness (ln)” value (37 °C) was 0.17 ± 0.077.
Consider CCGCAGCAAUAUUACGAACU, for which, under “30 °C”, the “self-splicing fitness (ln)” value is -1.92 ± 0.17.
Consider GGCAAGCAAUAUUACGUGCA, for which the “self-splicing fitness (ln)” value was -0.303 ± 0.068 (30 °C) and -0.635 ± 0.074 (37 °C).
Taken in the same sequence, the figures for CAUCAGCAAUAUUACGGUGU were -4.64 ± 0.27 and -1.77 ± 0.12.
Taken in the same sequence, the figures for UUUUAGCAAUAUUACGGCCU were -1.53 ± 0.26 and -1.87 ± 0.33.
CUUGAGCAAUAUUACGAUUG: the “self-splicing fitness (ln)” value is -2.49 ± 0.13 (30 °C) and -1.32 ± 0.14 (37 °C).
Regarding CUCGAGCAAUAUUACGUAUC, the “self-splicing fitness (ln)” value reads like this: (30 °C) -4.31 ± 0.3; (37 °C) -2.78 ± 0.29.
